For assay [1], the target named is His6-tagged vaccinia virus D13 (native D13) (vaccinia virus, Western Reserve strain). Briefly: crystal structure.
Assay [2] shares this target. The experiment in a line: negative-stain electron microscopy.

Experimental findings from paper PMC3169552 are described below.

Broadly, the stoichiometry N is a count of units in the complex or per binding partner. Take “His6-tagged vaccinia virus D13 (native D13) (natural protein)”: the stoichiometry N in assay [1] and in assay [2] was 3 each time.
